Assay results: the Human Domainome abundance scans (Beltran et al. 2025)
± gives the uncertainty stated by the source.

B1: SH3 and PX domain-containing protein 2B, residues 155 to 209; numbered along this chain, A1X283 (parent)
chain: EQYVVVANYQKQESSEISLSVGQVVDIIEKNESGWWFVSTAEEQGWVPATCLEGQ

Variants of: B1
Assay: abundance fitness (aPCA) (normalised: wild type 0, dead -1); higher = more abundant; growth selection in yeast, the domain comes from the species named
Conditions: Homo sapiens

Variant	abundance fitness
EQYVVVAQYQKQESSEISLSVGQVVDIIEKNESGWWFVSTAEEQGWVPATCLEGQ [N8Q]	-0.105 ± 0.14
EQYVVVATYQKQESSEISLSVGQVVDIIEKNESGWWFVSTAEEQGWVPATCLEGQ [N8T]	0.018 ± 0.097
EQYVVVAVYQKQESSEISLSVGQVVDIIEKNESGWWFVSTAEEQGWVPATCLEGQ [N8V]	-0.296 ± 0.075
EQYVVVAWYQKQESSEISLSVGQVVDIIEKNESGWWFVSTAEEQGWVPATCLEGQ [N8W]	-0.524 ± 0.088
EQYVVVAYYQKQESSEISLSVGQVVDIIEKNESGWWFVSTAEEQGWVPATCLEGQ [N8Y]	-0.448 ± 0.18
EQYVVVANAQKQESSEISLSVGQVVDIIEKNESGWWFVSTAEEQGWVPATCLEGQ [Y9A]	-0.774 ± 0.12
EQYVVVANCQKQESSEISLSVGQVVDIIEKNESGWWFVSTAEEQGWVPATCLEGQ [Y9C]	-0.648 ± 0.14
EQYVVVANDQKQESSEISLSVGQVVDIIEKNESGWWFVSTAEEQGWVPATCLEGQ [Y9D]	-0.491 ± 0.1
EQYVVVANEQKQESSEISLSVGQVVDIIEKNESGWWFVSTAEEQGWVPATCLEGQ [Y9E]	-0.597 ± 0.11
EQYVVVANFQKQESSEISLSVGQVVDIIEKNESGWWFVSTAEEQGWVPATCLEGQ [Y9F]	0.011 ± 0.12
EQYVVVANGQKQESSEISLSVGQVVDIIEKNESGWWFVSTAEEQGWVPATCLEGQ [Y9G]	-0.81 ± 0.083
EQYVVVANIQKQESSEISLSVGQVVDIIEKNESGWWFVSTAEEQGWVPATCLEGQ [Y9I]	-0.809 ± 0.37
EQYVVVANKQKQESSEISLSVGQVVDIIEKNESGWWFVSTAEEQGWVPATCLEGQ [Y9K]	-0.619 ± 0.12
EQYVVVANMQKQESSEISLSVGQVVDIIEKNESGWWFVSTAEEQGWVPATCLEGQ [Y9M]	-0.508 ± 0.13
EQYVVVANNQKQESSEISLSVGQVVDIIEKNESGWWFVSTAEEQGWVPATCLEGQ [Y9N]	-0.616 ± 0.22
EQYVVVANQQKQESSEISLSVGQVVDIIEKNESGWWFVSTAEEQGWVPATCLEGQ [Y9Q]	-0.744 ± 0.15
EQYVVVANRQKQESSEISLSVGQVVDIIEKNESGWWFVSTAEEQGWVPATCLEGQ [Y9R]	-0.21 ± 0.071
EQYVVVANSQKQESSEISLSVGQVVDIIEKNESGWWFVSTAEEQGWVPATCLEGQ [Y9S]	-0.484 ± 0.091
EQYVVVANTQKQESSEISLSVGQVVDIIEKNESGWWFVSTAEEQGWVPATCLEGQ [Y9T]	-0.312 ± 0.11
EQYVVVANVQKQESSEISLSVGQVVDIIEKNESGWWFVSTAEEQGWVPATCLEGQ [Y9V]	-0.249 ± 0.074
EQYVVVANWQKQESSEISLSVGQVVDIIEKNESGWWFVSTAEEQGWVPATCLEGQ [Y9W]	0.094 ± 0.12
EQYVVVANYAKQESSEISLSVGQVVDIIEKNESGWWFVSTAEEQGWVPATCLEGQ [Q10A]	0.003 ± 0.087
EQYVVVANYCKQESSEISLSVGQVVDIIEKNESGWWFVSTAEEQGWVPATCLEGQ [Q10C]	-0.135 ± 0.17
EQYVVVANYDKQESSEISLSVGQVVDIIEKNESGWWFVSTAEEQGWVPATCLEGQ [Q10D]	-0.266 ± 0.18

Variant	abundance fitness
EQYVVVANYEKQESSEISLSVGQVVDIIEKNESGWWFVSTAEEQGWVPATCLEGQ [Q10E]	0.125 ± 0.11
EQYVVVANYFKQESSEISLSVGQVVDIIEKNESGWWFVSTAEEQGWVPATCLEGQ [Q10F]	-0.257 ± 0.27
EQYVVVANYGKQESSEISLSVGQVVDIIEKNESGWWFVSTAEEQGWVPATCLEGQ [Q10G]	-0.322 ± 0.077
EQYVVVANYHKQESSEISLSVGQVVDIIEKNESGWWFVSTAEEQGWVPATCLEGQ [Q10H]	-0.145 ± 0.21
EQYVVVANYIKQESSEISLSVGQVVDIIEKNESGWWFVSTAEEQGWVPATCLEGQ [Q10I]	-0.128 ± 0.17
EQYVVVANYKKQESSEISLSVGQVVDIIEKNESGWWFVSTAEEQGWVPATCLEGQ [Q10K]	-0.192 ± 0.15
EQYVVVANYLKQESSEISLSVGQVVDIIEKNESGWWFVSTAEEQGWVPATCLEGQ [Q10L]	-0.044 ± 0.088
EQYVVVANYMKQESSEISLSVGQVVDIIEKNESGWWFVSTAEEQGWVPATCLEGQ [Q10M]	-0.476 ± 0.14
EQYVVVANYRKQESSEISLSVGQVVDIIEKNESGWWFVSTAEEQGWVPATCLEGQ [Q10R]	-0.071 ± 0.096
EQYVVVANYTKQESSEISLSVGQVVDIIEKNESGWWFVSTAEEQGWVPATCLEGQ [Q10T]	-0.058 ± 0.13
EQYVVVANYWKQESSEISLSVGQVVDIIEKNESGWWFVSTAEEQGWVPATCLEGQ [Q10W]	-0.334 ± 0.14
EQYVVVANYYKQESSEISLSVGQVVDIIEKNESGWWFVSTAEEQGWVPATCLEGQ [Q10Y]	-0.333 ± 0.23
EQYVVVANYQAQESSEISLSVGQVVDIIEKNESGWWFVSTAEEQGWVPATCLEGQ [K11A]	-0.106 ± 0.081
EQYVVVANYQEQESSEISLSVGQVVDIIEKNESGWWFVSTAEEQGWVPATCLEGQ [K11E]	-0.183 ± 0.11
EQYVVVANYQFQESSEISLSVGQVVDIIEKNESGWWFVSTAEEQGWVPATCLEGQ [K11F]	-0.689 ± 0.19
EQYVVVANYQGQESSEISLSVGQVVDIIEKNESGWWFVSTAEEQGWVPATCLEGQ [K11G]	-0.015 ± 0.054
EQYVVVANYQHQESSEISLSVGQVVDIIEKNESGWWFVSTAEEQGWVPATCLEGQ [K11H]	0.064 ± 0.14
EQYVVVANYQLQESSEISLSVGQVVDIIEKNESGWWFVSTAEEQGWVPATCLEGQ [K11L]	-0.433 ± 0.11
EQYVVVANYQMQESSEISLSVGQVVDIIEKNESGWWFVSTAEEQGWVPATCLEGQ [K11M]	-0.115 ± 0.18
EQYVVVANYQNQESSEISLSVGQVVDIIEKNESGWWFVSTAEEQGWVPATCLEGQ [K11N]	-0.33 ± 0.16
EQYVVVANYQPQESSEISLSVGQVVDIIEKNESGWWFVSTAEEQGWVPATCLEGQ [K11P]	-0.034 ± 0.1
EQYVVVANYQQQESSEISLSVGQVVDIIEKNESGWWFVSTAEEQGWVPATCLEGQ [K11Q]	-0.132 ± 0.13
EQYVVVANYQRQESSEISLSVGQVVDIIEKNESGWWFVSTAEEQGWVPATCLEGQ [K11R]	0.069 ± 0.065
EQYVVVANYQSQESSEISLSVGQVVDIIEKNESGWWFVSTAEEQGWVPATCLEGQ [K11S]	-0.072 ± 0.087
